Results from patent US20230159619A1, “COMPOSITIONS AND METHODS FOR REGULATING IMMUNE SYSTEM ACTIVITY” (Olema Pharmaceuticals, Inc., priority 2017, published 2023).

What was measured:
Format in all cases: cell-based, human
NFAT-Luciferase reporter [1] = assay: NFAT-Luciferase reporter assay with LCK(1-266) constructs (Example 11); settings: Jurkat E6.1 cells, α-CD3 and α-CD28, with or without endoxifen, compared to empty vector controls
Text: (§1) To provide a means for assessing T cell activity, a construct containing a reporter gene, such as firefly luciferase (Luc), under the control of an NFAT response element can be used, as described, e.g., in Example 3. In the present Example, Jurkat E6.1 cells were transiently transfected with an NFAT-Luciferase reporter construct, as well as one of (a) empty vector control; (b) an expression construct encoding LCK(1-266); and (c) an expression construct encoding LCK(1-266)-ER(T12). Transient transfections were performed using LTX and PLUS transfection reagent (ThermoFisher Scientific) according to manufacturer's protocols.
Transfected cells were treated in the absence or presence of 1:80 dilution of Immunocult CD3/CD28 tetrameric antibody mixture (StemCell Technologies, Canada), which stimulated T-cell activity. Stimulated cells were then further treated with RPMI 1640 media plus 4.8% FBS stripped with charcoal dextran (ThermoFisher Scientific), either without Z-endoxifen or with 100 nM Z-endoxifen (Axon-Medchem). Luciferase activity (luminescence) was measured and reported as percent induction of NFAT-Luciferase.

NFAT-Luciferase reporter [2] = assay: NFAT-Luciferase reporter assay with ZAP70dn(1-278) constructs (Example 10); settings: Jurkat E6.1 cells, αTCR+αCD28, with or without endoxifen, compared to empty vector controls
Text: as §1, with “immune pathway” for “T cell”, “construct” for “construct,”, “vector;” for “vector control;”, “ZAP70dn(1-278);” for “LCK(1-266); and”, “ZAP70dn(1-278)-ER(T2); and (d) an expression construct encoding ZAP70dn(1-278)-ER(T12).” for “LCK(1-266)-ER(T12).”
A first set of transfected cells was treated in the absence or presence of 1:30 dilution of Immunocult CD3/CD28/CD2 tetrameric antibody mixture (StemCell Technologies, Canada), which stimulated T-cell activity. […] Luciferase activity (luminescence) was measured and reported as a percentage induction of NFAT-Luciferase.
A further set of transfected cells was treated in the absence or presence of 0.25 μg/ml C305 (αTCR, Sigma-Aldrich) plus 2 μg/ml αCD28.2 (Biolegend), which stimulated T-cell activity. […] Luciferase activity (luminescence) was measured and reported in relative light units (RLU).

NFAT-Luciferase reporter [3] = assay: NFAT-Luciferase reporter assay in transiently transfected Jurkat E6.1 cells (Example 3)
Text: One outcome of T cell activation is the expression of Nuclear Factor of Activated T cells (NFAT) transcription factors. Accordingly, a construct containing a reporter gene, such as firefly luciferase (Luc), under the control of an NFAT response element can be used to assess T cell activity. Such a construct can either be transiently transfected into cells (e.g., Jurkat cells, which are an immortalized line of human T cells) or stably integrated into a cell line (e.g., a derivative Jurkat cell line). These reporter genes can be used to measure activation, or inhibition, of T cell activation pathways.
To examine whether an endoxifen-responsive dominant negative Zap-70 polypeptide could inhibit T cell activity resulting in NFAT-luciferase expression, Jurkat E6.1 cells (purchased from ATCC (Manassas, Va.)) were transiently transfected with an NFAT-Luciferase reporter construct and a test construct of (1) a control vector (“vector”), (2) a vector encoding a dominant negative Zap70 moiety, as described in Example 2 (“Zap70dnm”), or (3) a vector encoding an endoxifen-responsive dominant negative Zap70 polypeptide, including an ER(T2) domain operatively linked to a dominant negative Zap70 moiety, as described in Example 1 (“Zap70dnm-ER(T2)”). The transient transfections were performed using LTX and PLUS transfection reagent (ThermoFisher Scientific) according to manufacturer's protocols.
Transfected cells were treated in the absence or presence of 1:30 Immunocult™ CD3/CD28/CD2 tetrameric antibody mixture (StemCell Technologies, Canada) (“α-TCR”), which stimulates T cell activity. […]
(§2) After 19 hours, luciferase activity was assayed with Bright-Glo substrate according to manufacturer's protocols (Promega). Luminescence was detected on the Varioskan Lux (ThermoFisher Scientific) plate reader at a 1 second interval. The luminescence was measured and reported in relative light units (RLU). […]

NFAT-Luciferase reporter [4] = assay: NFAT-Luciferase reporter assay, endoxifen dose response (Example 4); settings: Jurkat E6.1 cells, anti-TCR antibody clone 305, endoxifen 0.05-1000 nM, 6 hours
Text: To examine whether the concentration of endoxifen affected the level of inhibition of T cell activity by an endoxifen-responsive dominant negative Zap-70 polypeptide, Jurkat E6.1 cells (purchased from ATCC (Manassas, Va.)) were transiently transfected with an NFAT-Luciferase reporter construct and a test construct of (1) a vector encoding a dominant negative Zap70 moiety, as described in Example 2 (“Zap70dnm”), or (2) a vector encoding an endoxifen-responsive dominant negative Zap70 polypeptide, including an ER(T2) domain operatively linked to a dominant negative Zap70 moiety, as described in Example 1 (“Zap70dnm-ER(T2)”). The transient transfections were performed using LTX and PLUS transfection reagent (ThermoFisher Scientific) according to manufacturer's protocols.
Transfected cells were treated with an anti-TCR antibody, clone 305, which stimulated T cell activity. […]
as §2, with “6” for “19”

B1: LCK(1-266): dominant negative LCK signaling moiety, SEQ ID NO: 17 (protein)
chain: MGCGCSSHPEDDWMENIDVCENCHYPIVPLDGKGTLLIRNGSEVRDPLVTYEGSNPPASPLQDNLVIALHSYEPSHDGDLGFEKGEQLRILEQSGEWWKAQSLTTGQEGFIPFNFVAKANSLEPEPWFFKNLSRKDAERQLLAPGNTHGSFLIRESESTAGSFSLSVRDFDQNQGEVVKHYKIRNLDNGGFYISPRITFPGLHELVRHYTNASDGLCTRLSRPCQTQKPQKPWWEDEWEVPRETLKLVERLGAGQFGEVWMGYYNG
NFAT-Luciferase reporter [1]
  luciferase reporter expression (percent induction of NFAT-Luciferase): substantially reduced expression of luciferase reporter

B2: ZAP70dn(1-278): dominant negative signaling moiety, ZAP70 amino acids 1-278, lacks a functional kinase domain, SEQ ID NO: 2 (protein)
chain: MPDPAAHLPFFYGSISRAEAEEHLKLAGMADGLFLLRQCLRSLGGYVLSLVHDVRFHHFPIERQLNGTYAIAGGKAHCGPAELCEFYSRDPDGLPCNLRKPCNRPSGLEPQPGVFDCLRDAMVRDYVRQTWKLEGEALEQAIISQAPQVEKLIATTAHERMPWYHSSLTREEAERKLYSGAQTDGKFLLRPRKEQGTYALSLIYGKTVYHYLISQDKAGKYCIPEGTKFDTLWQLVEYLKLKADGLIYCLKEACPNSSASNASGAAAPTLPAHPSTLT
NFAT-Luciferase reporter [2]
  luciferase reporter expression (RLU): substantially reduced expression of luciferase reporter

B3: Zap70dnm: polypeptide including a nuclear export signal and a dominant negative Zap-70 moiety, SEQ ID NO: 10 (protein)
chain: MNELALKLAGLDINKTMPDPAAHLPFFYGSISRAEAEEHLKLAGMADGLFLLRQCLRSLGGYVLSLVHDVRFHHFPIERQLNGTYAIAGGKAHCGPAELCEFYSRDPDGLPCNLRKPCNRPSGLEPQPGVFDCLRDAMVRDYVRQTWKLEGEALEQAIISQAPQVEKLIATTAHERMPWYHSSLTREEAERKLYSGAQTDGKFLLRPRKEQGTYALSLIYGKTVYHYLISQDKAGKYCIPEGTKFDTLWQLVEYLKLKADGLIYCLKEACPNSSASNASGAAAPTLPAHPSTLT
NFAT-Luciferase reporter [3]; vehicle (not treated with α-TCR or endoxifen)
  luciferase expression from the NFAT-luciferase construct: no luciferase expression was detected
NFAT-Luciferase reporter [3]; α-TCR plus 100 nM endoxifen, 19 hours
  luciferase expression from the NFAT-luciferase construct: low and nearly equivalent to the luciferase expression observed from sample 5
NFAT-Luciferase reporter [3]; α-TCR, no endoxifen, 19 hours
  luciferase expression from the NFAT-luciferase construct: low
NFAT-Luciferase reporter [4]
  luciferase expression from the NFAT-luciferase construct: low
